# Source: US20160053277A1, “Compositions Having Dicamba Decarboxylase Activity and Methods of Use” (PIONEER HI-BRED INTERNATIONAL, INC., priority 2013, published 2016)
# Assays:
# [1] = 14C assay with IPTG-induced recombinant E. coli cells: 14CO2 captured from [14C]-carboxyl-labeled dicamba; details: for decarboxylation activity of dicamba: among the 108 sequences tested, recombinant E. coli cells; for Enzymatic Detection level: dicamba decarboxylation activity of the protein of the given SEQ ID NO, High / Low / No; for Dicamba Decarboxylase Activity: induced recombinant E. coli cells, [14C]-carboxyl-labeled dicamba, 14CO2 capture
# [2] = Saturation mutagenesis of SEQ ID NO:109: dicamba decarboxylation activity of point mutants (carbon dioxide released); details: decarboxylation activity (carbon dioxide released) of point mutant compared with unmutated backbone protein; backbone SEQ ID NO: 109
Molecule,decarboxylation activity of dicamba [1],Enzymatic Detection level [1],Dicamba Decarboxylase Activity [1],Fold Activity [2]
"87 (protein, listed as Novosphingobium sp.) MASDIATAADLQTGGRQGYLRIATEEAFATRDQIDVYLRMVRDGTADRGMTSLWGFYAQSPSARATQIIERLLDLGEQRLADMDAAGIDKAVLALTSPGVQPLLDMEEARRIAGNANDRLAERCAAHPDRFIGMTAVAPQDPQWSAREILRGATQLGFKGVQINSHTQGRYLDEPFFDPIFRALGDVGQPLYIHPGTPPDSMIGPLLDAGLDGAIYGFGVETGMHLLRLITAGIFDRYPDLQIMVGHMGEALPYWLYRLDYMHQAGIRSQRYERMRPLKRTIAGYFRSNVLVTCSGMAWEPAIQFARQVMGEDRVMYAMDYPYQYEADEVRALDVMDLSPESKRKFFQTNAERWFDL",showed decarboxylation activity of dicamba,High,High,1.4
"88 (protein, listed as Starkeya novella) MARKIALEEHFTTPELAGKYVARPTQSDALFADIERRLADFDELRLEMMDRAEIDLMVLSVTTPGVQGVRDTGEAIRLARGANDFLAREVQKRPSRYAGFAHLAMQDAEAAATELERAVRELGFRGALINGQTNGHYLDEDQYAPFWERVQELDVPVYLHPGNMADSPAMFAHRPELGGPIWAWTAETAAHALRLVFGGTFTRFPGAKVILGHMGETLPFLLWRLDSRREFDLGEKLAPDALPSAIIKRNIAVTTSGVCDPAPLVAALQALSDDNVMFSVDYPYEDPQLASKFIETAPIGEETRAKVCHGNAERLLGL",showed decarboxylation activity of dicamba,High,High,1.3
"89 (protein, listed as Erwinia billingiae) MATNRRDFLKNATAVMAGSTVFAGSSHFASAAAVEPAAVQPPRRIIALEEHFMLPEFVGYLHETQQNLRNGLVDKVVTPLSDFGKGRLEIMDKNGVDFAVLSLSGPGVQAEPDRVKAVRLARYANDKLATEMQKNPRRYGGFAHLAMQDPLAAANELERCVKQLHMQGGMINGETDGLYLDDRRYDVFWERVEALNVPIYIHPGNPPDYPHMFAGHPEMWGPVWSWAVETCSHALRLIFSGTFDRYPGARVILGHMGETLPIQLWRLDSRYQIANQTFAIKHPPSWYAKKNITITTSGVCNDAALRCALDSMGSENVMFSIDYPFESTEIAVNWLKTANITEQERNAVAWGNATSILRLGA",showed decarboxylation activity of dicamba,High,High,3.1
"58 (protein, Mycobacterium colombiense) MARVIALEEHYATTEFLRGPGTWLASRPGIVEPAGDLGDGRIAAMDQAGVDLAVLSLAAPGVEQLDPDDAVRLARDCNDQLAAAVRRYPDRLAGFATVPTSAPDRAADELERAVRGLGFPGAVINGHSRGRYLDDPFFEPVLARAAELQAPIYLHPTIPPAGVIESSYAGFAEPVTFALATVGWGWHINTATHALRMILGGVFDRHPSLQMIIGHMGEATSFMLPRFDATLKPELTGLNHPVSSYLRENFHYTFANFNDHATYANLVAQVGIERVAFSADYPFGSMVDARAFLDGLPLSDDERAAISHRNAEKLLGL",showed decarboxylation activity of dicamba,High,High,1.5
"81 (protein, listed as Verticillium dahliae) MAASTKPKVVDIHTHMYPPSYIDILTSRTAIPVVRTFPQAADPRLILLDAEQQALDAALQDPTAKPPGRPLTSHYASLDQKIHFMDTHSIDISVVSLANPWLDFIEPKEAAATARSVNDEFEAMCASQPGRLFFFAALPLTAPLPALLEAVRHVAELEHCRGVILGTSGLGSGLDDPELVPVLEAVAAAALTVFLHPHYGLPNDVWGPRASAEYGHVLPLALGFPMETTIAVARMYLAGVFDRVPALRMLLAHSGGTLPFLAGRIESCILHDGQLVAEGKVGAARRTIWDVLREQVYLDAVIYSEIGLKAAIAASGGADRLMFGTDHPFFPPLGTDEQAKKESRINAGGSRPMITGNAMINGHGGLCNHITQSDYQDVVL",showed decarboxylation activity of dicamba,High,High,1.2
"57 (protein, Collimonas fungivorans) MAKLICVEEHVLDPAVGAATQSLVRAEAPYLPDWGSRVLDGRHVADRSRPHVIAPSESARKALEMGEPRLADMDAASIDMQVLSYGGFPQLLPAAQAIDLNRAANDKLALAAQAHPARFAGFATLPWQAPEAAARELERAVKQLGLKGALINGRPGDTFLDDARYAPILAAFDELKVPLYVHPGLPLPAVQAPYYGGFERELSARLAMFAWGWHNEAGIQVVRMLLAGVFDRHPRLQLISGHWGEMVPFFLQRLEDSIPQEASGLQRPIVQTYREHVYISPSGMFTLPHFQFIHALMGAQRILYSIDYPYQSLDGARAFIERLPISDTDKALIAHRNAERLLHL",showed decarboxylation activity of dicamba,High,High,2
"108 (protein, listed as Staphylococcus aureus) MAKSITFEEHYVIEDIQKETMNAISADPKGVPMKVMLEGLEKKTGFTNADELSHHDERIQFMNNQDVQIQVLSYGNGSPSNLVGQKAIELCQKANDQLANYIAQYPNRFVGFATLPINEPEAAAREFERCINDLGFKGALIMGRAQDGFLDQDKYDIIFKTAENLDVPIYLHPAPVNSDIYQSYYKGNYPEVTAATFACFGYGWHIDVGIHAIHLVLSGIFDRYPKLNMIIGHWGEFIPFFLERMDEALFAEHLNHSVSYYFKNSFYITPSGMLTKPQFDLVKKEVGIDRILYAADYPYIEPEKLGVFLDELGLTDEEKEKISYTNGAKLLGLSSNN",showed decarboxylation activity of dicamba,High,High,1.6
"55 (protein, listed as Serratia sp.) MAKIICLEEHTLDKALVMASMPAALEQAPFLSDWGKTVTDGNLPDRSRPQIEKNDLINIKGADIGRGRLDDMDVAGITMQVLSVGGFPHLISAAEGVDLNRAANDRLADAVNAHPDRFAAFATLPWAQPDSAEKELERAVKELGFKGALLNGRPSTHFLDHPDYDGLLARFNALGVPLYLHPGLPVRSVQQAYYGGFSDEVTARLSMFGWGWHHEAGIHLLRLILSGAFDKYPNLQVISGHWGEMLPFWLQRLDDSLPQAATGLRRTIAQTFKEQVYVTPSGMLTLPHFQFIYALLGAERIIFSVDYPYQTLDGVKAFIQSLPVPEEAKEAIAFRNAERLLGLTS",showed decarboxylation activity of dicamba,High,High,1.5
"4 (protein, listed as Lactobacillus buchneri) MAKVITLEEHFSSQKLGQKMAEVLPKRPIGNVSPKMQDYMQRSLPPEAELEDVTGSRIQWMDQHQISMQILSYGNQNPQNSDPKFAVELTKLANDELAKAVAKAPDRFRAFASLPVSHPTDAAAELKRGVEELGFKGAMLVRPTSQAHPFFDDPFYLPIFEAAANLNVPVYLHPSFPDSQIIDYYYSNGPWDDKVSGILGTAGYGWHTDVGIQTVRLLLSGVFEKYPNLKLISGHWGEFASFALERMDQVMYPETNLSEPISKIYRDHVYVTPSGILTEPQLKFVKDEVGIEHLLYSIDYPYIKPENSGSFIESSPLTDEEKELFAHGNAEKLLQL",showed decarboxylation activity of dicamba,High,High,1
"79 (protein, Pyrenophora teres) MATTTTPSTLIATLESHLTPTLAFTSPTTSPTQPALHLIPPTTLTKLRNLGPGRVKDMHMLGHSRQIISHIPVAAPPQICSRFNDAIHAATMTNTAKFSVLAVLPTDGMEAAKELARCVSKYRFVGGVIGLNRGLRINGEGWEELWGLAERLRIPIMFREMWPLAFEIVDYQHHLPYSALGPILTQLHTSHTSSPLPLVRLYLSSVFDHYPSLRLVLAHPGSLPSLVPRIESLINSIPATDKPKRSFLDVWQHNIYLTTADAQDMSSLRALLEQIPVDRVLYASNYPFEERGNELMNELRESEFLTNIEWERVAWVNAETLFNLKEAGTKEARQLTTIPSSRS",showed decarboxylation activity of dicamba,High,High,0.9
"56 (protein, Enterobacter aerogenes) MAKIICLEEHYLDSELGRACMPVALEQAPFLGDWGKTVADGHNPDRSRPQIEKNALINAKGADLGSRRLRDMDEAGITLQILSVGGFPQLAPEDEAVTLNTAANDRLAEAVRNHPDRFAAFATLPWAQPKDAENELVRAVEKLGFKGALLNGRPSSCFLDHPDYDSLLSRFNKLNVPLYLHPGLPLKSVQQAYFTGFSAEVNARLSMFGWGWHHEAGIHLLRLMLSGAFDKYPNMQVISGHWGEMLPFWLQRLDDSLPLAATGLSRTLTRTFQEHVYVTPSGMLTLPHFKFIYELMGAERILFSVDYPYQTLDGVKTFIDSLPVNKAEKEAIAFRNAERLLGITA",showed decarboxylation activity of dicamba,High,High,1.3
"92 (protein, listed as Chitinophaga pinensis) MARIVTLEEHVSFPEMTALLPEEILKNRKQSGAALQMQEKLADITGERLTSMKAAGISMQVLSVENTDVYLLPDSLAPAFAAKYNDLLADKISSHSDAFAAFAMLPMTVPEAAADELERAVKTHGFCGAMIKGLINGVFLDAPKFAPVFACAEKLGVPLYIHPGIPPKEVIDAYYSNVGDTKGPNEAIACYGWGWHSETAIHILRLLAAGIFDKYPQLNIIIGHMGEMLPMMWERSNRVFQPGNNGKNQRTLIETFRKQLYITTSGIFTQPPLQIAIDTIGIDNILFSIDYPFSSNQMGIDFLTKAALPAEQLAKMAHGNADRILKF",showed decarboxylation activity of dicamba,High,Yes,1.7
